This is an account of results in patent publication US20150231240A1, “ANTI-C16ORF54 ANTIBODIES AND METHODS OF USE THEREOF” (priority 2012, published 2015).

Test [1] addresses T1, cynomolgus monkey C16orf54 (cynomolgus monkey (Macaca fascicularis), UniProt Q6UWD8 1-224 (human entry)).
T1 construct: also called cyno C16orf54; cyno-C16orf54
T1 chain: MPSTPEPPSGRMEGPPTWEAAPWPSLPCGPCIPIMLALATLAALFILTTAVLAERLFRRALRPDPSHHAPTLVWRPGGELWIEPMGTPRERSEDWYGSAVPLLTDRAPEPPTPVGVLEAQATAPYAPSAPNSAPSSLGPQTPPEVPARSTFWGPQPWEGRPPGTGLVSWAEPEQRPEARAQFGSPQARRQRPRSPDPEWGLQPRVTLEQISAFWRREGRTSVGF
The experiment in a line: flow cytometry, 10 ug/ml antibody, F279-cyno-C16orf54 cells. As to the method:
(§1) Anti-C16orf54 antibodies which bound to human C16orf54 were tested for their reactivity with human C16orf54 and their crossreactivity with C16orf54 from cynomolgous monkeys (cyno C16orf54) using flow cytometry. Sarcoma cells transfected with and expressing human C16orf54 or cyno C16orf54 were washed with PBS with 0.1% BSA, incubated with FcX receptor blocking solution (BioLegend) for 15 minutes, incubated with 10 μg/ml of anti-C16orf54 antibody for 1 hour at 4° C., washed twice with PBS with 0.1% BSA, incubated with 20 μg/ml of R-Phycoerythrin-AffiniPure F(ab′)2 Fragment Goat Anti-Mouse IgG, Fcγ Fragment Specific (Jackson ImmunoResearch) for 30 minutes at 4° C., washed twice with PBS with 0.1% BSA, incubated with the viability dye TO-PRO-3 iodide (Life Technologies), and immediately analyzed on a MACSQuant Analyzer instrument (Miltenyi). For each cell line and anti-C16orf54 antibody, a fold change was derived by dividing the median fluorescence intensity for Phycoerythrin in the live cell population for the anti-C16orf54 antibody by the median fluorescence intensity for Phycoerythrin in the live cell population for the IgG isotype control antibody. A number of anti-C16orf54 antibodies (see, e.g., R29-8-57B, R29-8-136C, R29-7-1C, R29-67-7A, R29-67-4A, and R29-7-2A) bind human C16orf54 and also bind (e.g., are crossreactive with) cyno C16orf54.
In general terms: Flow cytometry measures light scatter and fluorescence of single cells or particles in a stream.

For test [2], the target named is T2, human C16orf54 (human, UniProt Q6UWD8 1-224).
T2 construct: also called huC16orf54; hC16orf54
T2 sequence: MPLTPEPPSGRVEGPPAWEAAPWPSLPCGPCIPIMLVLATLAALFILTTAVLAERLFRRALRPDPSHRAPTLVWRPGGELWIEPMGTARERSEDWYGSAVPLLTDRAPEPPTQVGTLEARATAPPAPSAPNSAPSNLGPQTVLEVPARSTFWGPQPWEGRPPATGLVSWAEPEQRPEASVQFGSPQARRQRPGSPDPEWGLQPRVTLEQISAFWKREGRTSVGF
Briefly: flow cytometry, 10 ug/ml antibody, D42M1-huC16orf54 cells. As to the method: as §1

In test [3] the target is T3, Human C16-ECD peptide (aa1-31) (human).
T3 construct: Coated on plates in the peptide ELISA; also called human extracellular domain peptide
T3 peptide: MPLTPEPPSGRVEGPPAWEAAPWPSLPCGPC
The experiment in a line: column head 'Full kinetics (nM)' in the table of the C16orf54 peptide binding assays; method and antigen not described; 1 run.

For test [4], the target named is T4, human C16orf54 ECD fragment aa9-24 (human).
T4 peptide: SGRVEGPPAWEAAPWP
The experiment in a line: peptide ELISA, 2 ug/ml peptide coated, 10 ug/ml antibody. How it is done: (§2) Anti-C16orf54 antibodies which bind to human C16orf54, including antibodies that are crossreactive with cyno C16orf54, were tested for their binding to various peptides derived from C16orf54 in a peptide ELISA. A 384-well high binding black microplate (Greiner) was incubated with 2 μg/ml of protein (human, cyno, or mouse extracellular domain peptides) for 16 hours, incubated for 1 hr with a blocking buffer (PBS with 5% Fetal Bovine Serum), washed four times with TBS with Tween, incubated for 1 hour with 10 μg/ml of anti-C16orf54 antibody, washed four times with TBS with Tween, incubated for 1 hour with 10 μg/ml of Peroxidase-AffiniPure Goat Anti-Mouse IgG, Fcγ Fragment Specific (Jackson ImmunoResearch), washed four times with TBS with Tween, and peroxidase was detected with a luminometer (Molecular Devices) upon addition of SuperSignal® ELISA Pico Chemiluminescent Substrate (Thermo Scientific). The luminescence signal was determined.
For orientation: An ELISA detects its analyte on a solid surface through an enzyme-linked reagent.

Test [5] addresses T5, human C16orf54 ECD fragment aa1-15 (human).
T5 peptide: MPLTPEPPSGRVEGP
The test is described as above. How it is done:
as §2

For test [6], the target named is T2, human C16orf54. The experiment in a line: flow cytometry titration, KG1 cells (endogenous human C16orf54).
The target in test [7] is T6, N-terminal 32 amino acids of huC16orf54 coupled to biotin (human, biotin at the C-terminus).
T6 construct: also called 32 amino acid N-terminal extracellular domain
T6 peptide: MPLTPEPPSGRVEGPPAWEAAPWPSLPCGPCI
Briefly: biolayer interferometry (OctetQK384), hybridoma supernatant on streptavidin sensors coated with the biotinylated peptide. How it is done: Eight anti-huC16orf54 monoclonal antibodies were further screened for binding and subsequent off-rate analysis using the OctetQK384® sytem (ForteBio). Hybridoma supernatants were screened for association to and dissocation from streptavidin sensors coated with the N-terminal 32 amino acids of huC16orf54 coupled to biotin, and the calculated offrates (kdis) are shown in Table 31. Cloned hybridomas with […] off-rates were carried forward for antibody purification.
On the technique in general: Biolayer interferometry detects binding as a change in optical thickness at a sensor tip.

Test [8] deals with T1, cynomolgus monkey C16orf54. The experiment in a line: flow cytometry titration, F279-cyno-C16orf54 cells. How it is done:
Anti-C16orf54 antibodies which bound to human C16orf54 were tested for their binding to cells expressing human C16orf54 and cells expressing cyno C16orf54. […] Median fluorescence intensities for each primary antibody concentration were used to derive a flow EC50/Kd using the one site-specific binding with Hill slope model in Prism (GraphPad Prism® Software). Results are shown as flow EC50 in Table 35.

The target in test [9] is T4, human C16orf54 ECD fragment aa9-24. The experiment in a line: peptide ELISA, 2 ug/ml peptide coated, 10 ug/ml antibody; column 'Human ECD & ECD fragments bound by antibody'. How it is done: as §2
In test [10] the target is T5, human C16orf54 ECD fragment aa1-15. Described as above. As to the method: as §2
The target of test [11] is T3, Human C16-ECD peptide (aa1-31). The experiment in a line: column head 'Full kinetics (nM)' in the table of the C16orf54 peptide binding assays; method and antigen not described; 2 runs; 2 runs, stdev 0.02.
In test [12] the target is T7, Cyno C16-ECD peptide (aa1-31) (cynomolgus monkey).
T7 construct: Coated on plates in the peptide ELISA; also called cyno extracellular domain peptide; Cyno ECD
T7 peptide: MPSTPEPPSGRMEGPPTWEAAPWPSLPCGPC
Briefly: peptide ELISA, 2 ug/ml peptide coated, 10 ug/ml antibody; column 'Cyno ECD bound by antibody'. As to the method:
as §2

Test [13] addresses T3, Human C16-ECD peptide (aa1-31). The experiment in a line: column head 'Full kinetics (nM)' in the table of the C16orf54 peptide binding assays; method and antigen not described; 4 runs.
For test [14], the target named is T6, N-terminal 32 amino acids of huC16orf54 …. The experiment in a line: biolayer interferometry (OctetQK384), purified antibody on streptavidin sensors coated with the biotinylated peptide. How it is done: Affinity measurements of purified anti-huC16orf54 antibodies were carried out on the OctetQK384® sytem (ForteBio). After coating streptavidin sensors with the N-terminal 32 amino acids of huC16orf54 coupled to biotin at the C-terminus, association and dissociation of purified anti-huC16orf54 antibodies was monitored. KD values were derived using ForteBio's software.

Test [15] deals with T8, cynomolgus monkey C16orf54 (cynomolgus monkey (Macaca fascicularis)).
T8 sequence: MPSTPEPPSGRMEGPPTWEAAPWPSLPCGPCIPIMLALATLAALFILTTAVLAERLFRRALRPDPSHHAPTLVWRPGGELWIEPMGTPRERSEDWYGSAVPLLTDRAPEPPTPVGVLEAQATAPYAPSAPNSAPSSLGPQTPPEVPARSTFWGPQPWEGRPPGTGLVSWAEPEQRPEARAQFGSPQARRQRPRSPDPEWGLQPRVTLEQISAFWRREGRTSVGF
Briefly: flow cytometry, 10 ug/ml antibody, F279-cyno-C16orf54 cells.

What is called Kd is the equilibrium constant for the complex coming apart. A word on the EC50: it is the concentration needed to bring the measured effect to its halfway point. A word on the koff: it is the first-order rate constant of dissociation. What is called kon is the rate constant with which the complex forms.

B1: R29-67-7A (antibody, V domains shown)
VH: DVQLQESGPGLVKPSQSLSLTCTVTGYSITSDYAWNWIRQFPGNKLEWMGYINYSGRTRYNPSLNSRISLTRDTSTNQFFLQLNSVTTEDTATYYCARENYDYEFYAMDYWGQGTSVTVSS
VL: DIVMSQSPSSLAVSVGEKVTMSCKSSQNLLYSSNQKNYLAWYQQKPGQSPKLLIYWASTRESGVPDRFTGSGSGTDFTLTISSVKAEDLAVYYCQQYYIYRTFGGGTKLEIK
notes: Murine monoclonal IgG2a from a hybridoma
On to B1, for which the results for the “Median fold change relative to IgG control” value (in test [1]; in the test with human C16orf54 [2]) were 35.6 fold and 140 fold, respectively. Besides, the Kd in test [3] came to 2.51 nM. Besides, the binding result in [4] and in [5] was “binds” in each case. For the same molecule, the EC50 with human C16orf54 [6] was determined as 7.3 nM; in [8] it was 3.7 nM. The koff in [7] came to 0.00845 s⁻¹.

B2: R29-8-75B (antibody, V domains shown)
VH: DVQLVESGGGLVQPGGSRKLSCAASGFTFSRFGMHWVRQAPEKGLEWVAYISSGSSTIYYADTVKGRFTISRDNPKNTLFLQMTSLRSEDTAMYYCARVDYDVALAYWGQGTLVTVSA
VL: GVLMTQTPLSLPVSLGDQASISCRSSQSIVHRNGNTYLEWYLQKPGQSPKLLIYKVSNRFSGVPDRFSGSGSGTDFTLKISRVEAEDLGVYYCFQGSQWTFGGGTKLEIK
notes: Murine monoclonal antibody from a hybridoma
For the molecule B2, the “Median fold change relative to IgG control” value came to 7.8 fold in test [1] and 148 fold in the test with human C16orf54 [2]. The binding result in [9], in [10] and in test [12] was “binds” each time. Moreover, the Kd in test [11] was found to be 0.09 nM. In the test with human C16orf54 [6], the EC50 came out at 6.5 nM.

B3: R29-7-2A (antibody, V domains shown)
VH: EVQLVESGGGLIQPKGSLKLSCVASGFSFNTHAMNWVRQAPGKGLEWVARIRSKSNNYARYYADSVKDRFTISRDDSQSILYLQMNNLKTEDTAMYYCVKQGDGGFAYWGQGTLVTVSA
VL: DIVMSQSPSSLAVSVGEKVTMSCKSSQSLLYSSNQKNYLAWYQQRPGQSPKLLIYWASARESGVPDRFTGSGSGTDFTLTISSVKAEDLAVYYCQQYYSYPPTFGAGTKVELK
notes: Murine monoclonal IgG2b from a hybridoma
With B3, the Kd in test [13] amounted to 1.01 nM; in test [14], 1.3 nM. The “Median fold change relative to IgG control” value was 78.5 fold in test [1] and 267 fold in the test with human C16orf54 [2]. The binding result in test [9] and in [10] was “binds” each time. Besides, the EC50 worked out at 1 nM with human C16orf54 [6] and 2.7 nM in test [8]. Also, the koff in test [14] came to 4.12e-05 s⁻¹; in [7] it was 0.00707 s⁻¹. Also, in [14], the kon was 31900 M⁻¹ s⁻¹.

B4: R29-8-58C (antibody, V domains shown)
VH: EVKLVESGGGLVKPGGSLKFSCAASGFTFSSYAVSWVRQTPEKRLEWVASITSGGRSYYPDSVKGRFTISRDNARSMLYLHMSSLRSEDTAMYYCTRGWDENDLWGQGTTLTVSS
VL: DVVMTQTPLSLFVSLGDQASISCRSSQSLLYSNGNTYLHWYLQRPGQSPQLLIYKVSNRFSGVPDRFSGSGSGTDFTLKISRVEAEDLGVYFCSQTTHVPWTFGGGTKLEIK
notes: as for B2
Turning to B4, the “Median fold change relative to IgG control” value with human C16orf54 [2] came out at 184 fold; in [15] it was 1.4 fold. In addition, the EC50 with human C16orf54 [6] turned out to be 0.6 nM.
